The values below come from US5763571A, “Inhibiting protein interactions” (The General Hospital Corporation, priority 1995, dated 1998).

Assay [1] has as its target T1, Ras-GTP (Homo sapiens, UniProt P01112).
T1 construct: made in house; host or cells: E. coli
The assay is described as follows: Comparative co-precipitation of Ras-GTP-γ-32P by GST-Raf proteins. To be noted: 10 pmol GST-Raf protein, single concentration. The assay is classed as binding.

For assay [2], the target named is T2, GAP (Homo sapiens, UniProt P20936).
T2 sequence (P20936 1-1047): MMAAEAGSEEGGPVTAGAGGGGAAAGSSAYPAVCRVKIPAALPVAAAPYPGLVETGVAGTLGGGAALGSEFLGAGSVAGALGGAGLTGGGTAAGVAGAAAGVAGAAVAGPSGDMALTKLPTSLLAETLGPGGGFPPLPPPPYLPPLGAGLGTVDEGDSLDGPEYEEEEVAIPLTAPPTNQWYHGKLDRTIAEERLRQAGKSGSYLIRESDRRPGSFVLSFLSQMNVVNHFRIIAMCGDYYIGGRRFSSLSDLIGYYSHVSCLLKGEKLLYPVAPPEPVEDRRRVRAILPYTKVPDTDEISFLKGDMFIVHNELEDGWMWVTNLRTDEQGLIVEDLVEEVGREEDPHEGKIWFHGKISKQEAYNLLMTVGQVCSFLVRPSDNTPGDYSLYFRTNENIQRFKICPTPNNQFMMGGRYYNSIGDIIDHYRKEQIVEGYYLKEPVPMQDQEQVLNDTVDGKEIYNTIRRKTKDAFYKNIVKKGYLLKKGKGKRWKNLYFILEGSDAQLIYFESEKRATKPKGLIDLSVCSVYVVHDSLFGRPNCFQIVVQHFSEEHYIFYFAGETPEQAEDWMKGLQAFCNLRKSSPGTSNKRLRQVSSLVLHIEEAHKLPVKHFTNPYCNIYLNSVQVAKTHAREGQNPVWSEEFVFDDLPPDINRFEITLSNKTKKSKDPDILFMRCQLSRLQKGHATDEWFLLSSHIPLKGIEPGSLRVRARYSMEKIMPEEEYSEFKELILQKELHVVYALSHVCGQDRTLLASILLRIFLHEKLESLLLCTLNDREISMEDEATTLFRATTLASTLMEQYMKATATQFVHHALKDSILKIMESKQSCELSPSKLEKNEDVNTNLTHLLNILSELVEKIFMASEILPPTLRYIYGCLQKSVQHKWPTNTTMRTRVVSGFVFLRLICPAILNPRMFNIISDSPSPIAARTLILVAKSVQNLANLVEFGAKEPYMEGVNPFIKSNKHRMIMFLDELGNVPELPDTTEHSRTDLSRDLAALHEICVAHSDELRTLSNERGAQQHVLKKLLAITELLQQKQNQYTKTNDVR
The conditions noted are these: Schaber et al. 1989; cited from earlier work.

The target in assay [3] is T3, complex formation between Ras-GTP and GST-Raf(1-257) (Homo sapiens, UniProt P01112+P04049).
T3 construct: 6xHis (6XH) (C); made in house; host or cells: E. coli
The assay is described as follows: Inhibition of Ras/Raf co-precipitation by synthetic peptides (contact epitope scanning). The assay is classed as binding.

Assay [4] has as its target T4, Ras-GAP stimulation of c-rasH GTPase (Homo sapiens, UniProt P01112).
T4 construct: made in house; host or cells: Sf9 (baculovirus)
The assay is described as follows: Inhibition of Ras-GAP stimulation of c-rasH GTPase. The format is biochemical. The conditions noted are these: added at a concentration nearly equal to Ras-GAP. The protocol:
The GTPase activity was estimated from the γ^32 P-GTP remaining bound to c-rasH after filtration.
In these experiments, baculoviral recombinant c-rasH was expressed and purified from the membrane pellet of Sf9 cells as described for the baculoviral membrane V12GrasH above. The c-rasH was charged with γ^32 P-GTP by combining 0.1 ml of c-rasH (approximately 10 μg/ml) in Ras storage buffer with 0.3 ml of 60 mM TrisCl, pH 7.5, 5 mM EDTA, 0.7 mg/ml BSA, 1.5 mM DTT, 4 mM ATP, 0.142 μM γ^32 P-GTP (4-6 ×10^5 cpm/pmole) on ice. After 1 hour, 50 μl of 135 mM MgCl2 was added. Loading of c-rasH with α^32 P-GTP was carried out under the same conditions; the α^32 P-GTP-c-rasHwas separated from unbound nucleotide by gel filtration (PD-10) in 25 mM TrisCl, pH 7.5, 5 mM MgCl2, 3 mM ATP, 1 mM DTT, and stored on ice. Baculoviral recombinant, full-length human GAP protein was extracted from Sf9 cells by homogenization in 25 mM TrisCl pH 7.5, 1 mM EGTA, 5 mM MgCl2, 1 mM DTT (GAP buffer) and protease inhibitors. […] GAP was detected using a radiolabeled Ras peptide in a filter binding assay. […] The mixture was filtered through a BA85 nitrocellulose membrane, washed 3×with 4 ml of stop solution, and the filters analyzed for retained ^32 P-labeled nucleotide.

Assay [5] has as its system GTPγS-loaded V12GrasH. Briefly: In vitro direct binding of Ras to immobilized GST-Raf (immunoblot). To be noted: immobilized on glutathione agarose, 6 hours 4° C., pan-Ras immunoblot. The protocol: In vitro direct binding experiments were carried out as follows. […] After 6 hours of tumbling at 4° C., the glutathione agarose beads were washed and analyzed for the binding of Ras peptide by sodium dodecyl sulfate-polyacrylamide gel electrophoresis (SDS-PAGE), followed by immunoblotting using a pan-Ras monoclonal antibody-2 (oncogene Science).
The DNA sequences encoding Raf1 amino acid residues 1-257 were generated by the polymerase chain reaction (PCR), using as template the plasmids RSV-C4 and RSV-PM17 (Bruder, J. T., Heidecker, G. & Rapp, U.R. Genes Dev. 6, 545-556 (1992)), which encode the wild-type and C168 →S mutant sequences, respectively. The c-DNA were inserted into pGEX-KG (Guan, K. L. and Dixon J. E., Anal Biochem. 192, 262-267 (1991)) at the EcoR1 and Sall sites, and sequenced to confirm the mutation and proper in-frame insertion. […] About 50% of the recombinant peptides were recovered as full-length fusion proteins. […] The beads were washed 4×and resuspended in buffer A as a 50% suspension. […] Following transfer to polyvinylidene difluoride (PVDF) membrane, the membrane was immunoblotted using pan-Ras monoclonal antibody-2 (Oncogene Science) and detected using the enhanced chemiluminescence technique (Amersham).

For “GST-Raf(1-131): GST fusion of c-Raf-1 residues 1-131, unstable”, the “Complex formation with Ras-GTP-γ-32P by co-precipitation (in words)” value in assay [1] is recorded as “complexed as well with Ras-GTP”.

For “31-43: Ras peptide of a previous study (Schaber et al.) (EYDPTIEDSYRKQ; UniProt P01112 31-43, looked up, fragment)”, the “Competition of Ras/GAP interaction (in words), previous study” value in assay [2] is given as “did not compete at all”.

“Ras 23-37: Ras peptide of a previous study (Schaber et al.) (LIQNHFVDEYDPTIE; UniProt P01112 23-37, looked up, fragment)”: the “Competition of Ras/GAP interaction (in words), previous study” value in assay [2] is “did not compete at all”.

Turning to “GST-Raf(51-149): GST fusion of c-Raf-1 residues 51-149 (SEQ ID NO:7)”, the “Complex formation with Ras-GTP-γ-32P by co-precipitation (in words)” value in assay [1] is “complexed as well with Ras-GTP”.

For the substance “96-112 peptide: acetylated, C-terminal amide peptide of c-Raf-1 residues 96-112 (Ac-CAVFRLLHEHKGKKARL-NH2)”, in assay [3], the “Inhibition of Ras-Raf association by peptide (in words)” value is given as “little inhibition”.

Turning to “GST-Raf(1-257, C168 →S): mutant fragment in which serine replaces cysteine at position 168”, in assay [4], the “Inhibition of Ras-GAP stimulation of Ras GTPase (in words)” value is given as “significantly less inhibition”. Further, in assay [5], the “Binding of GTPγS-V12GrasH (in words)” value is “significantly lower amounts of Ras are retained”.
